We go through three molecules from publication PMC2636851.

Where a chain is given by its changes, count along the chain named.

The target of data set [1] is T1, Mcm10-ID F326A (Xenopus laevis, UniProt Q5EAW4 230-427, F326A).
T1 sequence: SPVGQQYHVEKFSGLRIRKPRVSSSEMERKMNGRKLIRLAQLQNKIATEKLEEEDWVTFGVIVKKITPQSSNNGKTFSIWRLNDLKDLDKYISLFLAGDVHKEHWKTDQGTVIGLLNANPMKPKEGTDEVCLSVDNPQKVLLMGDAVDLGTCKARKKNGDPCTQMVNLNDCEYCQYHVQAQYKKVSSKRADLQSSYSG
Kind of data set: fluorescence anisotropy.

The target of data set [2] is T2, Mcm10-ID K385E/K386E (Xenopus laevis, UniProt Q5EAW4 230-427, K385E;K386E).
T2 sequence: T1 sequence with A97F, K156E, K157E
Kind of data set: fluorescence anisotropy.

Data set [3] has as its target T3, Mcm10-ID K417E/R418E (Xenopus laevis, UniProt Q5EAW4 230-427, K417E;R418E).
T3 sequence: T1 sequence with A97F, K188E, R189E
As to the kind of experiment: fluorescence anisotropy. (Fluorescence polarisation rises when a labelled molecule tumbles more slowly, as on binding a larger partner.)

The target of data set [4] is T4, Mcm10-ID K412E/K413E (Xenopus laevis, UniProt Q5EAW4 230-427, K412E;K413E).
T4 sequence: T1 sequence with A97F, K183E, K184E
Kind of data set: fluorescence anisotropy.

For data set [5], the target named is T5, Mcm10-ID K293A (Xenopus laevis, UniProt Q5EAW4 230-427, K293A).
T5 sequence: T1 sequence with K64A, A97F
As to the kind of experiment: fluorescence anisotropy.

Data set [6] has as its target T6, Mcm10-ID wild type (Xenopus laevis, UniProt Q5EAW4 230-427).
T6 sequence: T1 sequence with A97F
Kind of data set: NMR.

Data set [7] concerns the target T6, Mcm10-ID wild type. As to the kind of experiment: fluorescence anisotropy.

B1: 25mer ssDNA (ssDNA)
DNA: ATGGTAGGCAACCATGTAGTAGTCA
For B1, the binding result in data set [1], in data set [3] and in data set [4] was “binds” throughout. Further, the binding signal in data set [2] was 10 fold reduction in affinity vs wild type; in data set [5], 5 fold reduction in affinity vs wild type.

B2: 15mer ssDNA (NMR) (ssDNA)
DNA: GGCGCATTGTCGCAA
As to B2, the binding result in data set [6] is reported as “binds”.

B3: 10mer from 5' end of 25mer (ssDNA)
DNA: ATGGTAGGCA
On to B3, for which the binding result in data set [7] is reported as “binds”.
